This is an account of results in the nanobody polyreactivity screen of Harvey et al. (2022).

This data set in a line: yeast display, Sf9 membrane polyspecificity reagent, FACS + sequencing; frameworks hold sequencing errors. The procedure, abridged:
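Synthetic nanobody libraries on Saccharomyces cerevisiae BJ5465 were galactose-induced for 36–48 hours, stained 1 hour at 4 °C with 10% biotinylated, detergent-solubilized Sf9 membrane reagent and enriched on streptavidin microbeads. FACS then separated cells into low and high (top ~1%) gates by anti-HA (expression) and streptavidin (reagent binding) fluorescence. Genes were colony-PCR amplified, MiSeq 2 × 250 sequenced and CDR-length filtered. A clone's polyreactivity label is that of its gate of origin.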
Take “QVQLVESGGGLVQAGGSLRLSCAASGFTFALNAMGWYRQAPGKERELVAAISFSGTRTYYADSVKGRFTISRDNAKNTVYLQMNSLKPEDTAVYYCAARVWVSDSYYPYYYWGQGTQVTVSS”: the “polyreactivity (PSR sort gate)” value is given as “high polyreactivity”.
The entry for “QVQLVESGGGLVQAGGSLRLSCADSGSIFYPYAKGLYRQDPGKERELVATITSSGSSTYYADSVKGRFTISRDNAKNTVYLQMNSLKPEDTAVYYCAAYRVILYYLYDYWGQGTQVTLSS” is “low polyreactivity”; for “QVQLVESGGGLVQAGGSLRLSCAASGSTFWDYAMGWYRQAPGKERELVAAISTSGGSTYYADSVKGRFTISRDNAKNTVYLQMNSLKPEDTAVYYCAAGRVRRRVWYNYWGQGTQVTVSS” it is “high polyreactivity”.
Consider “QVQLVESGGGLVQAGGSLRLSCAASGFTFTDYTMGWYIQAPGTEREFVAAISYRGSNTYYADSVKGRFTISRDNAKNTVYLQMNSLKPLDTAVYYCAADSYRYKYNYWGQGTQVTVSS”, for which the “polyreactivity (PSR sort gate)” value is “high polyreactivity”.
The value for “QVQLVESGGGLVQAGGSLRLSCAASGRTFDFYAKGWYRQAPGKERELVAAITFSTGSTTYADSVKGRFTISRDNAKNTVYLQMNSLKPEDTAVYYCAADGDGWWWSYVDRYDYWGQGTQVTVSS” was “low polyreactivity”; that for “QVQLVESGGGLVQARGSLRLSCAASGRTFAIYAMGWYRPAPGKEREFVAAISWSGGDTYYADSVKGRFTISRDNAKNTVYLQMNSLKPEDTAVYYCAARDNDYEGRDLQYELDYWGQGSQVTVSS” was “low polyreactivity”; that for “QVQLQESGGGLVQAGGSLRLSCAASGTIFRPATKGWYRQAPGKECEFVASITIGTITNYADSVKGRFTISRDNAKNTVYLQMNSLKPEDTAVYYCAVYGTWEVDLYYWGQGTQVTVSS” was “high polyreactivity”.
For “QVQLVESGGVLVQAGGSLRLSCAASGSIFTYYAMGWYRQAPGKEREFVAAISRSGGSTYYADSVKGRFTISRDNANNTVYLQMNSLKPEDTAVYYCNAYSYSDAGDDGDYWGQGTQVTVSS”, the “polyreactivity (PSR sort gate)” value was “low polyreactivity”.
The entry for “QVQLEESGGGLVQAGGSLRLSCAASGRIFTWYTMGWYRQAPGKEREFVAAITRSGTSTYYADSVKGRFTISRDNAKNTVYLQMNSLKPEDTAVYYCAAGKPRSKYWYDYWGQGTQVTVSS” is “high polyreactivity”; for “QVQLVESGGGLVQAGGSLRLSCAASGSIFIWYAMGWYRQAPGKERELVAAITSSGSTNYADSVKGRFTISRDNAKNTVYLQMNSLKPEDTAVYYCADEYTYYTYNLNYWGQGTQVTVSS” it is “low polyreactivity”; for “QVQLVESGGGLVQAGGSLRISCAASGRISVFNVMGWYIQAPGKERELVAAITSGGSTKYADSVKGRFTISRDNAKNTVYLQMNSLKPEDTAVYYCAALYQFHGKIWDGDYWGQGTQVTVSS” it is “low polyreactivity”.
The value for “QVQLEESGGGLVQAGGSLRLSCAPSVIIFPAYDMGWYRQAPGKERELVAAIRTSGTSTYYADSVKGRFTISRDNAKNTVYLEMNSLKPDDTAVYYCGAYQAYGGDYWGQGTQVTVSS” was “high polyreactivity”; that for “QVQLVESGGGLVQAGGSLRLSCAASGLTFYVYAMGWYRQAPGKERELVAAISSGGRTYYADSVKGRFTISRDNAKNTVYLQMTSLKPEDTAVYYCAAVRHRNYGYWGQGTQVTVSS” was “high polyreactivity”.
As to “QVQLVESGGGLVEAVGSLRLSCAASGINFQGNAMGWSRQAPGKERELVASITAGGDTTYYADSVKGRFTISRDNAKNTVYFQMNSLKPEDTAVYYCATRLYGYWPYGFDYWGQGTQVTVSS”, the “polyreactivity (PSR sort gate)” value is reported as “low polyreactivity”.
The entry for “QVQLVESGGGLVQAGGSLRLSCAASGFTFTTYGMGWSRQAPWKERELVAAISWSGGSTYYADSVKGRFTISRDNAKNTVYLQMNSLNPEYTAVYYCAKDRTYQASTLGYWGQGTQVTVSS” is “low polyreactivity”.
The value for “QVQLVESGGGLVQAGGSLRLSCAASGRTFTYYGKGWYRQAPGKERELVAAITERGDSTYYADSVKGRFTISRDNAKNTVYLQMNSLKPEDTAVYYCAAAEHLTRPTSPTQDGDHWGQGTQVTVSS” was “low polyreactivity”; that for “QVQLVESGGGLVQAGGSLRLSCAASGRTFLTNTMGWYRQAPGKERELVAAISSGGSTKYADSVKGRFTISRDNAKNTVYLQMNSLKPEDTAVYYCAATGWRYGYKYYYWGQGTQVNVSS” was “high polyreactivity”; that for “QVQLVESGGGLVQAGGSLRLSCAASGITFLPYAMGWYRPAPGKERELVAAITRGGGSTYADSVKGRFTISRDNAKNTVYLQMYSLKPEDTAVYYCNAKGRGWTAQYDYWGQGTQVTVSS” was “low polyreactivity”.
The value for “QVQLVESGGGLVQAGGSLRLSCAASGSIFYTNAMGWYRQAPGKERELVAAIRWSGGRTYYADSVKGRFTISRDNAKNTVYLQMNSLKPEDTAVYYCNVVVRYPSAYDYWGQGTQVTVSS” was “high polyreactivity”.
“QVQLVESGGGLVQAGGSLRLSCAASGRTIDSNAMGWYRQAPGKERELVAAISSDGGSTYYADSVKGRFTISRDNAKNTVYLQMNSLKPEDTAVYYCNKDDPVDGPLYFRKYDYWGQGTQVTVSS”: the “polyreactivity (PSR sort gate)” value is listed as “low polyreactivity”.
On to “QVQLVESGGGLDQAGGSLRLSCAASGSIFGSYAMGWNTPAPGKERELVAAISVSGGSTYYADSVKGRFTISRYNAKNTVYLQMNSLKPEDTAVYYCAADWQELEYDYWGQGTQVTVSS”, for which the “polyreactivity (PSR sort gate)” value is “low polyreactivity”.
On to “QVQLVESGGGLVQAGGSLRVSCAASGFSFKYYAMGWYRQAPGKERELVAAITKRGGSTYYADSVKGRFTISRDNAKNTVYLQLNSLIPEDTAVYYCAADGRAYERYDYRSDYWGQGSQVTVSS”, for which the “polyreactivity (PSR sort gate)” value is “high polyreactivity”.
The value for “QVQLVESGGGLVQAGGSLRLSCASSGSIFYYTEIGWYRQAPGKERELVAAISWGDGITYYADSVKGRFTISRDYAKNTVSLLMNSLKPEDTAFYYCAVDYYYLPFDYWGQGTQGTVSS” was “high polyreactivity”; that for “QVQLVESGGGLVQAGGSLSLSCAASGSTFVPYAMGWYRPAPGKERELVAAISSTGGSTYYADSVKGRFTISRDNAKNTVYLQMNSLKAEDTAVYYCNALAKIRYGQINKGYYWGQGTQVTVSS” was “high polyreactivity”; that for “QVHHVESGGGLVQAGGSLRLSSAASGSIFTYTMGWYRQAPGKERELVAAISGGGGRTYYADSVKGRFTISRDNAKNNVYLQMKSLKPEDSAVYYCNAYQYWRYRWQYNYWGQGTQVTVSW” was “high polyreactivity”.
The value for “QVQLVDSGGGLVQAGGSLLLSCAASGSTYKFYAMGWYRQAPGKERELVASITSSSGPTYYADSVKGRFTISRDNAKNTVYLQMKSLKPEDTAVYYCAKRPIRYYHLLRGNYWGQGTQVTVSS” was “low polyreactivity”; that for “QVQLVESGGGLVQAGGSLRLSCAASGLIFQYYAMGWYRQAPGKERELVAAISGSGVRSYYADSVKGRFTTSRDNAKNTVYLQMNSLKPEDTAVYYCNTLRQDIIRGDYWGQGTHVTVSS” was “high polyreactivity”; that for “QVQLVESGGGLVQAGGSLRLSCDASGRIIAFYVMGWYRQAPGKERELVAAITSGGNTNYADSVKGRFTISRDNAKNTVYLQMNSLKPEDTAVYYCAVPVLTYVSDYYWGQGTQVTVSS” was “low polyreactivity”.
The value for “QEQLQERGGGLVQAGGSLRLSCAASGSIFKVVDMGLYRQAPAKEREFVATIGEGGNTYYADSVKGRFTISRDNAKNTVYLQMNSLKPEDTAVYFYAVVLGTYYRYTYWGQGTQVTVSS” was “low polyreactivity”; that for “QVQLVESGGGLVQAGGSLRLSCAASGSIFYVYAMGRYRQAPGKERELVASINKSGGSTYYADSVKGRFTISRDNAKNTVYLQMNSLKPEDTAVYYCAARTGWPRVGFQYPAHVGFDYWGQGTQVTVSS” was “low polyreactivity”.
For the sequence “QVQLVESGGGLVQAGGSLRLSGAASGITFGDYAMGWYRQEPGKERELVAAISYSGGSTYYTDSVKGRFTISRDNAKNTVYLQMNSLKPEDTAVYYCAARFRQLGLAYYYWGQGTQVTVSS”, the “polyreactivity (PSR sort gate)” value was “high polyreactivity”.
The entry for “QVQLVESGGGLVQAGGSLRLSCAASGIIFGYYAMGWYRQAPGKERELVAAISGNGGSTYYADSVKGRFTLSRDNAKITVYLQMNSLKPEDTAVYYCAARRGYRYGPRYDYWGQGTQVTVSS” is “high polyreactivity”; for “QVQLVESGGGIVQAGGSLRLSCAASGRIIVNYAMGWYRQAPGKERELVAAISYSGGGTYYADSVKGRFTISRDNAKNTVYLHMNSLKPEDTAVYYCATVRRDDRYNYWGQGNQVTVSS” it is “low polyreactivity”.
As to “QVQLVESGGGLVQAGGSLRLSCAASGFTFSWYPMGWYRQAPGKERELVAAITSGGGTNYADSVKGRFTISRDNAKNTVYLQMNSLIPEDTAVYYCAARGRWFYYLDDYWGQGTQVTVSS”, the “polyreactivity (PSR sort gate)” value is “low polyreactivity”.
The entry for “QVQLVESGGGLVQAGGSLRLSCSASGRTFYHYTMGRYIQAPGKERELVAAITSGGSTYYADSVKGRFPISRDNAKNTVYLQMNSLKPEDTAVYYCARVRPLYHYSRYDYWGQGTQVTVSS” is “high polyreactivity”.
The value for “QVQLGESGGGLVQAGGSLRLSCAASGYIFRVYAMGWYIQARGKERDFVAAITRGGRTNYADSVKGRFTISRDNAKNTVYLQMNSLKQEDTAVYYCAASFSAIRGGVRVTIDYYWGQGTQVTVSS” was “high polyreactivity”; that for “QVQLVESGGGLVQAGGSLRLSCAASGSTFYSYSMGWNRQAPGKERELVAAITKSGGSTYYADSVKGRFTISRDNAKNTVYLQMNSLKPEDTAVYYCAARQGVRMYWGQVTQVTVSS” was “high polyreactivity”; that for “QVQLVESGGGLVQAGGSLRVSCAASGFTFRGYAMGWYRQAPGKERELVAAIRRGVITNYADSVKGRFTISRDNAKNTVYLQMHSLKPEDTAVYYCAAGNITPYRYYHGYYQSIYDYWGQGTQVTVSS” was “low polyreactivity”.
The value for “QVQLVESGGGLVQAGGSLRLSCAASGSIFAKYAMGWYRQAPGKERELVAAITSGGSTNYADSVKGRFTISRDNAKNTVYLQMTSLKPEDTAVYYCAARNHYRGYYWGQGTHVTVSS” was “low polyreactivity”; that for “QVQLVESGGGLVQAGGSLRLSCAASGFSFSSYAMGWYRQAPGTERELVATISVNGGSTNYADSVKGRFTISRDNAKNTVYLQMNSLIPEDTAVYYCNAKSYTRRSYYTPTVPGDYWGQGTQVTVSS” was “low polyreactivity”; that for “QVQLVESGGGLVQAGGSLRLSCAASGRIFYVYAMGWYRQAPGKERELVAAISSDDGSTYYADSVKGRFTISRDNAKNTVYLQMNSLKPEVTAVYYCAKANKRGRYNYWGQGTQVTVSS” was “high polyreactivity”.
